Data published in patent US20230280343A1 (NEW YORK UNIVERSITY, published 2023).

Target: T1, SARS-CoV-2 spike receptor binding domain (RBD) (SARS-CoV-2, UniProt P0DTC2 319-541)
T1 construct: domain: RBD

B1: coiled-coil domain of the cartilage oligomeric matrix protein (C) (other)
chain: GDLAPQMLRELQETNAALQDVRELLRQQVKEITFLKNTVMECDACGKLN
notes: also called parent protein C; ccCOMP
  binding result: no binding
